Assays:
FcγRIa = molecular target: T1, FcγRIa (human, UniProt P12314 16-292); assay: SPR (Biacore), antibody captured, FcγR as analyte; relative to GpH7-A5/GpH7-B3/GpL16-k0 = 100
T1 construct: extracellular domain; Soluble extracellular domain with C-terminal His tag, used as analyte in Biacore; also called FcgRI; 1a; not shown: His tag attached to the C terminus
Experimental: (§1) The heterodimerized antibodies He Abs in which one of the H chains was introduced with an alteration were assayed for their binding activities to each activating FcγR and inhibitory FcγR according to the method described in Example 4. […] The activating FcγRs in FIGS. 26, 27, 28, and 29 are FcγRIa, FcγRIIa (R), FcγRIIa (H), and FcγRIIIa, respectively.
(§2) Analysis of interaction between objective antibody and the FcγR was carried out using Biacore T100 (GE Healthcare). HBS-EP+ (GE Healthcare) was used as the running buffer, and the measurement temperature was set to 25° C. Chips produced by immobilizing the antigen peptide by the amine coupling method to a Series S Sencor Chip CM5 (GE Healthcare), or alternatively, chips produced by allowing preliminarily biotinylated antigen peptides to interact with and immobilize onto a Series S Sensor Chip SA (certified) (GE Healthcare) were used. Antibodies of interest were captured onto an antigen peptide-immobilized chip, and allowed to interact to each FcγR diluted with running buffer. To regenerate and repeatedly use the chip, the antibodies captured on the chip were washed off by reacting 10 mM glycine-HCl, pH 1.5.

FcγRIIb = molecular target: T2, FcγRIIb (human, UniProt P31994 43-217); assay: as above
T2 construct: extracellular domain; Soluble extracellular domain with C-terminal His tag, used as analyte in Biacore; also called FcgRIIb; 2b; not shown: His tag attached to the C terminus
T2 sequence (looked up): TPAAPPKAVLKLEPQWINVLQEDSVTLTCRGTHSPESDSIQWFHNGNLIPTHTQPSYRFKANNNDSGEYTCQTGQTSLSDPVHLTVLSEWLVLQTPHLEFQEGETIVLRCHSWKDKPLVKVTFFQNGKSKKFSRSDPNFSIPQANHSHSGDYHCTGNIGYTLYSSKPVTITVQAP
Experimental: as §1, §2

T1 sequence (P12314 16-292): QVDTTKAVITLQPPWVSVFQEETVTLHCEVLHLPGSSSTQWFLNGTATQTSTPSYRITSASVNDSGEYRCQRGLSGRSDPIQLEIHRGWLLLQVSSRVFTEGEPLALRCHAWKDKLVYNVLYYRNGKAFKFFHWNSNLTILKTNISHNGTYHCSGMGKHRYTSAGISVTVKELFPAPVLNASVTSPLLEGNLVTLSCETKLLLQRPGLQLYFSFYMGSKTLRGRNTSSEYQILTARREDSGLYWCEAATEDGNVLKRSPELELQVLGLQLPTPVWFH

B1: GpH7-A5/GpH7-B3 variant N325_13S/GpL16-k0 (antibody, human IgG1, kappa)
heavy 1: not shown
heavy 2: not shown
light: DIVMTQSPLSLPVTPGEPASISCQASESLVHSNRNTYLHWYLQKPGQSPQLLIYKVSNRFSGVPDRFSGSGSGTDFTLKISRVEAEDVGVYYCSQNTHVPPTFGQGTKVEIERTVAAPSVFIFPPSDEQLKSGTASVVCLLNNFYPREAKVQWKVDNALQSGNSQESVTEQDSKDSTYSLSSTLTLSKADYEKHKVYACEVTHQGLSSPVTKSFNRGEC
notes: Heterodimerized anti-glypican-3 IgG1; alteration in the GpH7-B3 chain only; also called He Ab
He/Con_1a (FcγRIa): 96.8 % of control (=100)
He/Con_2b (FcγRIIb): 177 % of control (=100)

B2: GpH7-A5/GpH7-B3 variant P238_20W/GpL16-k0 (antibody, human IgG1, kappa)
heavy 1: not shown
heavy 2: not shown
light: DIVMTQSPLSLPVTPGEPASISCQASESLVHSNRNTYLHWYLQKPGQSPQLLIYKVSNRFSGVPDRFSGSGSGTDFTLKISRVEAEDVGVYYCSQNTHVPPTFGQGTKVEIERTVAAPSVFIFPPSDEQLKSGTASVVCLLNNFYPREAKVQWKVDNALQSGNSQESVTEQDSKDSTYSLSSTLTLSKADYEKHKVYACEVTHQGLSSPVTKSFNRGEC
notes: as for B1
He/Con_1a (FcγRIa): 99.9 % of control (=100)
He/Con_2b (FcγRIIb): 123 % of control (=100)

B3: GpH7-A5/GpH7-B3 variant S239_06M/GpL16-k0 (antibody, human IgG1, kappa)
heavy 1: not shown
heavy 2: not shown
light: DIVMTQSPLSLPVTPGEPASISCQASESLVHSNRNTYLHWYLQKPGQSPQLLIYKVSNRFSGVPDRFSGSGSGTDFTLKISRVEAEDVGVYYCSQNTHVPPTFGQGTKVEIERTVAAPSVFIFPPSDEQLKSGTASVVCLLNNFYPREAKVQWKVDNALQSGNSQESVTEQDSKDSTYSLSSTLTLSKADYEKHKVYACEVTHQGLSSPVTKSFNRGEC
notes: as for B1
He/Con_1a (FcγRIa): 99 % of control (=100)
He/Con_2b (FcγRIIb): 101 % of control (=100)

B4: GpH7-A5/GpH7-B3 variant S267_07I/GpL16-k0 (antibody, human IgG1, kappa)
heavy 1: not shown
heavy 2: not shown
light: DIVMTQSPLSLPVTPGEPASISCQASESLVHSNRNTYLHWYLQKPGQSPQLLIYKVSNRFSGVPDRFSGSGSGTDFTLKISRVEAEDVGVYYCSQNTHVPPTFGQGTKVEIERTVAAPSVFIFPPSDEQLKSGTASVVCLLNNFYPREAKVQWKVDNALQSGNSQESVTEQDSKDSTYSLSSTLTLSKADYEKHKVYACEVTHQGLSSPVTKSFNRGEC
notes: as for B1
He/Con_1a (FcγRIa): 100 % of control (=100)
He/Con_2b (FcγRIIb): 192 % of control (=100)

B5: GpH7-A5/GpH7-B3 variant P331_07I/GpL16-k0 (antibody, human IgG1, kappa)
heavy 1: not shown
heavy 2: not shown
light: DIVMTQSPLSLPVTPGEPASISCQASESLVHSNRNTYLHWYLQKPGQSPQLLIYKVSNRFSGVPDRFSGSGSGTDFTLKISRVEAEDVGVYYCSQNTHVPPTFGQGTKVEIERTVAAPSVFIFPPSDEQLKSGTASVVCLLNNFYPREAKVQWKVDNALQSGNSQESVTEQDSKDSTYSLSSTLTLSKADYEKHKVYACEVTHQGLSSPVTKSFNRGEC
notes: as for B1
He/Con_1a (FcγRIa): 93.4 % of control (=100)
He/Con_2b (FcγRIIb): 114 % of control (=100)

B6: GpH7-A5/GpH7-B3 variant V266_07I/GpL16-k0 (antibody, human IgG1, kappa)
heavy 1: not shown
heavy 2: not shown
light: DIVMTQSPLSLPVTPGEPASISCQASESLVHSNRNTYLHWYLQKPGQSPQLLIYKVSNRFSGVPDRFSGSGSGTDFTLKISRVEAEDVGVYYCSQNTHVPPTFGQGTKVEIERTVAAPSVFIFPPSDEQLKSGTASVVCLLNNFYPREAKVQWKVDNALQSGNSQESVTEQDSKDSTYSLSSTLTLSKADYEKHKVYACEVTHQGLSSPVTKSFNRGEC
notes: as for B1
He/Con_1a (FcγRIa): 99.3 % of control (=100)
He/Con_2b (FcγRIIb): 152 % of control (=100)

B7: GpH7-A5/GpH7-B3 variant P331_06M/GpL16-k0 (antibody, human IgG1, kappa)
heavy 1: not shown
heavy 2: not shown
light: DIVMTQSPLSLPVTPGEPASISCQASESLVHSNRNTYLHWYLQKPGQSPQLLIYKVSNRFSGVPDRFSGSGSGTDFTLKISRVEAEDVGVYYCSQNTHVPPTFGQGTKVEIERTVAAPSVFIFPPSDEQLKSGTASVVCLLNNFYPREAKVQWKVDNALQSGNSQESVTEQDSKDSTYSLSSTLTLSKADYEKHKVYACEVTHQGLSSPVTKSFNRGEC
notes: as for B1
He/Con_1a (FcγRIa): 93.6 % of control (=100)
He/Con_2b (FcγRIIb): 102 % of control (=100)

B8: GpH7-A5/GpH7-B3 variant P331_04F/GpL16-k0 (antibody, human IgG1, kappa)
heavy 1: not shown
heavy 2: not shown
light: DIVMTQSPLSLPVTPGEPASISCQASESLVHSNRNTYLHWYLQKPGQSPQLLIYKVSNRFSGVPDRFSGSGSGTDFTLKISRVEAEDVGVYYCSQNTHVPPTFGQGTKVEIERTVAAPSVFIFPPSDEQLKSGTASVVCLLNNFYPREAKVQWKVDNALQSGNSQESVTEQDSKDSTYSLSSTLTLSKADYEKHKVYACEVTHQGLSSPVTKSFNRGEC
notes: as for B1
He/Con_1a (FcγRIa): 95.5 % of control (=100)
He/Con_2b (FcγRIIb): 110 % of control (=100)

B9: GpH7-A5/GpH7-B3 variant S239_07I/GpL16-k0 (antibody, human IgG1, kappa)
heavy 1: not shown
heavy 2: not shown
light: DIVMTQSPLSLPVTPGEPASISCQASESLVHSNRNTYLHWYLQKPGQSPQLLIYKVSNRFSGVPDRFSGSGSGTDFTLKISRVEAEDVGVYYCSQNTHVPPTFGQGTKVEIERTVAAPSVFIFPPSDEQLKSGTASVVCLLNNFYPREAKVQWKVDNALQSGNSQESVTEQDSKDSTYSLSSTLTLSKADYEKHKVYACEVTHQGLSSPVTKSFNRGEC
notes: as for B1
He/Con_1a (FcγRIa): 97.8 % of control (=100)
He/Con_2b (FcγRIIb): 107 % of control (=100)

Reference: patent publication US20150344570A1 (published 2015)
